Laboratory results reported in IntAct's records for PubMed 17875927.

B1: CBL-interacting serine/threonine-protein kinase 24 (Arabidopsis thaliana (Mouse-ear cress)), Q9LDI3 (parent)
chain: MTKKMRRVGKYEVGRTIGEGTFAKVKFARNTDTGDNVAIKIMAKSTILKNRMVDQIKREISIMKIVRHPNIVRLYEVLASPSKIYIVLEFVTGGELFDRIVHKGRLEESESRKYFQQLVDAVAHCHCKGVYHRDLKPENLLLDTNGNLKVSDFGLSALPQEGVELLRTTCGTPNYVAPEVLSGQGYDGSAADIWSCGVILFVILAGYLPFSETDLPGLYRKINAAEFSCPPWFSAEVKFLIHRILDPNPKTRIQIQGIKKDPWFRLNYVPIRAREEEEVNLDDIRAVFDGIEGSYVAENVERNDEGPLMMNAFEMITLSQGLNLSALFDRRQDFVKRQTRFVSRREPSEIIANIEAVANSMGFKSHTRNFKTRLEGLSSIKAGQLAVVIEIYEVAPSLFMVDVRKAAGETLEYHKFYKKLCSKLENIIWRATEGIPKSEILRTITF

Variants of: B1
Conditions: with vatb1_arath VHA-B1, P11574
Sequence of vatb1_arath VHA-B1, P11574 (P11574 whole entry): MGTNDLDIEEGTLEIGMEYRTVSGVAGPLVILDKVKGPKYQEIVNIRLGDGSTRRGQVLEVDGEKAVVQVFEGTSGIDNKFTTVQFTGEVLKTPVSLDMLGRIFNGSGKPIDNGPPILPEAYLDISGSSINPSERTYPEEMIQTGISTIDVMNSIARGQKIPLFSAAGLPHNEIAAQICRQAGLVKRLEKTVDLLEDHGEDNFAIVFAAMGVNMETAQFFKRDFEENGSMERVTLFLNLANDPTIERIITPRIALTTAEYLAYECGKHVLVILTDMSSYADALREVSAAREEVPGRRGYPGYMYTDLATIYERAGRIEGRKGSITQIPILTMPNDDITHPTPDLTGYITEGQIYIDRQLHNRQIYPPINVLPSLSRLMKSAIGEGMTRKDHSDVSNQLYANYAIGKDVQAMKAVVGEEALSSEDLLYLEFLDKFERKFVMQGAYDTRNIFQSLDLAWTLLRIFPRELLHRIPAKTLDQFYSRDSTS

effect of a mutation on the interaction | Variant
decreasing interaction | K40N

Variants of: B1
Conditions: with vatb2_arath VHA-B2, Q9SZN1
Sequence of vatb2_arath VHA-B2, Q9SZN1 (Q9SZN1 whole entry): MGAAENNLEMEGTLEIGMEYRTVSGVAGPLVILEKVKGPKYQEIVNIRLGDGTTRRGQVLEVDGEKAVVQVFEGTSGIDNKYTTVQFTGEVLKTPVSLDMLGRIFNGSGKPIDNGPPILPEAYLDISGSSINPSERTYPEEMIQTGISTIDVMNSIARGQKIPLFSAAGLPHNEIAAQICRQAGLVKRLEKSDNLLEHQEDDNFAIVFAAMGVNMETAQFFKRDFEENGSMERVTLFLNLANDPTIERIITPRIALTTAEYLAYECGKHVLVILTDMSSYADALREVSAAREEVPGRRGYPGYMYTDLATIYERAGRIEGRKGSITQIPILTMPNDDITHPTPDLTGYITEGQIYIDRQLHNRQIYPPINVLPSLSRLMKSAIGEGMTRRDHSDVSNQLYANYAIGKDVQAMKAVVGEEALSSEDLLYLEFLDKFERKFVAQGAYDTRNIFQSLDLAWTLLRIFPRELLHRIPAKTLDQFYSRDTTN

effect of a mutation on the interaction | Variant
decreasing interaction | K40N
